B1: hDisp1^NNN (D572N, D573N, D1051N), N-terminal Flag tag and C-terminal His10 tag, purified (natural protein, human, UniProt Q96F81 1-1524, looked up)
chain: MAMSNGNNDFVVLSNSSIATSAANPSPLTPCDGDHAAQQLTPKEATRTKVSPNGCLQLNGTVKSSFLPLDNQRMPQMLPQCCHPCPYHHPLTSHSSHQECHPEAGPAAPSALASCCMQPHSEYSASLCPNHSPVYQTTCCLQPSPSFCLHHPWPDHFQHQPVQQHIANIRPSRPFKLPKSYAALIADWPVVVLGMCTMFIVVCALVGVLVPELPDFSDPLLGFEPRGTAIGQRLVTWNNMVKNTGYKATLANYPFKYADEQAKSHRDDRWSDDHYEREKREVDWNFHKDSFFCDVPSDRYSRVVFTSSGGETLWNLPAIKSMCNVDNSRIRSHPQFGDLCQRTTAASCCPSWTLGNYIAILNNRSSCQKIVERDVSHTLKLLRTCAKHYQNGTLGPDCWDMAARRKDQLKCTNVPRKCTKYNAVYQILHYLVDKDFMTPKTADYATPALKYSMLFSPTEKGESMMNIYLDNFENWNSSDGVTTITGIEFGIKHSLFQDYLLMDTVYPAIAIVIVLLVMCVYTKSMFITLMTMFAIISSLIVSYFLYRVVFHFEFFPFMNLTALIILVGIGANNAFVLCDVWNYTKFDKPHAETSETVSITLQHAALSMFVTSFTTAAAFYANYVSNITAIRCFGVYAGTAILVNYVLMVTWLPAVVVLHERYLLNIFTCFKKPQQQIYDNKSCWTVACQKCHKVLFAISEASRIFFEKVLPCIVIKFRYLWLFWFLALTVGGAYIVCINPKMKLPSLELSEFQVFRSSHPFERYDAEYKKLFMFERVHHGEELHMPITVIWGVSPEDNGNPLNPKSKGKLTLDSSFNIASPASQAWILHFCQKLRNQTFFYQTDEQDFTSCFIETFKQWMENQDCDEPALYPCCSHWSFPYKQEIFELCIKRAIMELERSTGYHLDSKTPGPRFDINDTIRAVVLEFQSTYLFTLAYEKMHQFYKEVDSWISSELSSAPEGLSNGWFVSNLEFYDLQDSLSDGTLIAMGLSVAVAFSVMLLTTWNIIISLYAIISIAGTIFVTVGSLVLLGWELNVLESVTISVAVGLSVNFAVHYGVAYRLAPDPDREGKVIFSLSRVGSAMAMAALTTFVAGAMMMPSTVLAYTQLGTFMMLIMCISWAFATFFFQCMCRCLGPQGTCGQIPLPKKLQCSAFSHALSTSPSDKGQSKTHTINAYHLDPRGPKSELEHEFYELEPLASHSCTAPEKTTYEETHICSEFFNSQAKNLGMPVHAAYNSELSKSTESDAGSALLQPPLEQHTVCHFFSLNQRCSCPDAYKHLNYGPHSCQQMGDCLCHQCSPTTSSFVQIQNGVAPLKATHQAVEGFVHPITHIHHCPCLQGRVKPAGMQNSLPRNFFLHPVQHIQAQEKIGKTNVHSLQRSIEEHLPKMAEPSSFVCRSTGSLLKTCCDPENKQRELCKNRDVSNLESSGGTENKAGGKVELSLSQTDASVNSEHFNQNEPKVLFNHLMGEAGCRSCPNNSQSCGRIVRVKCNSVDCQMPNMEANVPAVLTHSELSGESLLIKTL
notes: human Dispatched1, M1 to L1524, triple mutant in TM4 and TM10; The purified protein is a mix of uncleaved (175 kDa) and Furin-cleaved species (C145 with the His tag; N35 and N30 with the Flag tag); source: HEK293F, transiently transfected, purified (anti-Flag resin, Ni-NTA, SEC on Superose 6) in GDN; not shown: Flag, N-terminal, kept; His10, C-terminal, kept

One series deals with the molecule itself. Put plainly: SEC; purified hDisp1^NNN on Superose 6 10/300 GL in 25 mM Tris pH 8.0, 150 mM NaCl, 0.02% GDN.
For the molecule B1, the binding result is “binds”.

A further series deals with wild-type human Dispatched1 (hDisp1), N-terminal Flag tag and C-terminal Twin-Strep tag (human) (UniProt Q96F81).
Experiment: not given
In turn, “NanoLuc-tagged human Shh, mutant E71A (from UniProt Q15465 24-462) (ligand)” came in with a Scube2-dependent Shh-NL release from HEK293T cells after 6 h, against WT Shh-NL (fold reduction) greater than 2.
For the molecule “NanoLuc-tagged human Shh, mutant K74A (from UniProt Q15465 24-462) (ligand)”, the Scube2-dependent Shh-NL release from HEK293T cells after 6 h, against WT Shh-NL (fold reduction) is greater than 2.
Same read-out and setting: as for “NanoLuc-tagged human Shh, mutant L56A (from UniProt Q15465 24-462) (ligand)”, the figure is greater than 2; as for “NanoLuc-tagged human Shh, mutant L56K (from UniProt Q15465 24-462) (ligand)”, greater than 2.
As for “NanoLuc-tagged human Shh, mutant N50A (from UniProt Q15465 24-462) (ligand)”, the Scube2-dependent Shh-NL release from HEK293T cells after 6 h, against WT Shh-NL (fold reduction) is greater than 2.
In the case of “NanoLuc-tagged human Shh, mutant N81A (from UniProt Q15465 24-462) (ligand)”, the Scube2-dependent Shh-NL release from HEK293T cells after 6 h, against WT Shh-NL (surface localisation of this mutant reduced just below 50%) (fold reduction) was greater than 2.
As to “NanoLuc-tagged human Shh, mutant V51E (from UniProt Q15465 24-462) (ligand)”, the Scube2-dependent Shh-NL release from HEK293T cells after 6 h, against WT Shh-NL (fold reduction) is greater than 2.
For “NanoLuc-tagged human Shh, mutant Y80A (from UniProt Q15465 24-462) (ligand)”, the Scube2-dependent Shh-NL release from HEK293T cells after 6 h, against WT Shh-NL (fold reduction) was greater than 2.
